In patent US20260234255A1 (Genmab, published 2026):

T1: rhesus monkey (Macaca mulatta) CD30 (rhesus monkey, UniProt P28908 19-595 (human entry))
T1 construct: also called mmCD30
T1 chain: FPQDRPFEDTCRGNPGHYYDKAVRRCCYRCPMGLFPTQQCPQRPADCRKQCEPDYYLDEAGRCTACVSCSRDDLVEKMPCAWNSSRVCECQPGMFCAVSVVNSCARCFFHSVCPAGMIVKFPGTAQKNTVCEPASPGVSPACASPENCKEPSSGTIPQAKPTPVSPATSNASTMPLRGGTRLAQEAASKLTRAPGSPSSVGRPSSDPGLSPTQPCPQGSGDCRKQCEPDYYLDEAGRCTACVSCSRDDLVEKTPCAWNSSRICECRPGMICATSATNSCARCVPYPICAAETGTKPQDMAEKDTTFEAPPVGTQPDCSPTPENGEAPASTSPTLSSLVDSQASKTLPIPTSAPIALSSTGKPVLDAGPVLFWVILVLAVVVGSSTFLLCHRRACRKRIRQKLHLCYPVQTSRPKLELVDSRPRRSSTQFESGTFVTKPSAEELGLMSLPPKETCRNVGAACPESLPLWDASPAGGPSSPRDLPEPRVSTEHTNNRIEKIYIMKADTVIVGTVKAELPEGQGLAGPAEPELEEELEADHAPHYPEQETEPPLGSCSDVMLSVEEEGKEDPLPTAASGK

T2: human CD30 (human, UniProt P28908 19-595)
T2 construct: also called huCD30; TNFRSF8
T2 sequence: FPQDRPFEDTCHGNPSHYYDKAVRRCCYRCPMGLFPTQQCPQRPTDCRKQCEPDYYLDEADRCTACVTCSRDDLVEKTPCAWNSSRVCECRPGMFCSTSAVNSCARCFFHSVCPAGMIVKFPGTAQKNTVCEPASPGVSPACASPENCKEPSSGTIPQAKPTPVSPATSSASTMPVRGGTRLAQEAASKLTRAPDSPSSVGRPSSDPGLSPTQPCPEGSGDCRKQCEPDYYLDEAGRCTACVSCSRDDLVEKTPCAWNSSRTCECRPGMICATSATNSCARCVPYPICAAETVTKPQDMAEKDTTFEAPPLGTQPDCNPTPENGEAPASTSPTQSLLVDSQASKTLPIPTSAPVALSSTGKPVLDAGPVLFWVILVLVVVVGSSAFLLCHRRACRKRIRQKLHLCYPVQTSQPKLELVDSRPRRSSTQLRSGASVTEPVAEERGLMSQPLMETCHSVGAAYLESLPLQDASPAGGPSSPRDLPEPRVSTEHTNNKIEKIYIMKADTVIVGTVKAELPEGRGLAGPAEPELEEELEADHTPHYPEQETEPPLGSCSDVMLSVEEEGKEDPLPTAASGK


Experiments:
[1] = molecular target: T1, rhesus monkey (Macaca mulatta) CD30; assay: flow cytometry, Expi293F cells transfected with rhesus monkey CD30
Description: Cells (3×10⁴ cells/well) were incubated in polystyrene 96-well round-bottom plates (Greiner bio-one, cat. no. 650180) with serial dilutions of antibodies (ranging from 0.005 to 10 μg/mL in 3-fold dilution steps) in 100 μL staining buffer at 4° C. for 30 min. Experiments were performed in technical duplicate. After washing twice in staining buffer, cells were incubated in 50 μL secondary antibody at 4° C. for 30 min. As a secondary antibody, R-PE-conjugated goat-anti-human IgG (Jackson ImmunoResearch, UK; cat. no. 109⁻¹¹⁶-098) diluted 1:400 in staining buffer was used. Cells were washed twice in staining buffer, resuspended in 30 μL staining buffer containing 0.4% EDTA and analyzed on an iQue Screener (Intellicyt Corporation, USA). Binding curves were analyzed using non-linear regression (sigmoidal dose-response with variable slope) using GraphPad Prism V9.0.0 software (GraphPad Software, San Diego, CA, USA).

[2] = molecular target: T1, rhesus monkey (Macaca mulatta) CD30; assay: flow cytometry, HEK293 cells; panel title 'HEK293 rhesus CD30'
Description: Cells (3×10⁴ cells/well) were incubated in polystyrene 96-well round-bottom plates (Thermo Scientific, cat. no. 163320) with serial dilutions of antibodies (ranging from 0.0002 to 50 μg/mL in 4-fold dilution steps) in 50 μL staining buffer at 4° C. for 30 min. Experiments were performed in technical duplicate. After washing twice in staining buffer, cells were incubated in 50 μL secondary antibody at 4° C. for 30 min. As a secondary antibody, R-PE-conjugated goat-anti-human IgG (Jackson ImmunoResearch, UK; cat. no. 109⁻¹¹⁶-098) diluted 1:200 in staining buffer was used. Cells were washed twice in staining buffer, resuspended in 30 μL staining buffer containing 0.4% EDTA and the ToPro-3 viability marker (Invitrogen, cat. no. T3605) diluted 1:10,000. Cells were analyzed on an iQue Screener (Intellicyt Corporation, USA). Binding curves were analyzed using non-linear regression (sigmoidal dose-response with variable slope) using GraphPad Prism V9.0.0 software (GraphPad Software, San Diego, CA, USA).

human CD30 = molecular target: T2, human CD30; assay: flow cytometry, KI-JK cells (ALCL), range of 3 tests
Description: Cells (3×10⁴ cells/well) were incubated in polystyrene 96-well round-bottom plates (Greiner bio-one, cat. no. 650180) with serial dilutions of antibodies (range 0.0046 to 10 μg/mL in 3-fold dilution steps) in 50 μL staining buffer at 4° C. for 30 min. After washing twice in staining buffer, cells were incubated with 50 μL secondary antibody at 4° C. for 30 min. […] Next, cells were washed twice in staining buffer, resuspended in 100 μL staining buffer supplemented with TO-PRO-3 iodide (Thermo Fisher Scientific; cat. no. T3605; 1:8000 dilution) and analyzed on a FACSCelesta flow cytometer (BD Biosciences, USA). Live cells were gated based on FSC/SSC and absence of TOPRO-3 staining. Binding curves were analyzed by non-linear regression of log-transformed data (sigmoidal dose-response with variable slope, four parameters) using GraphPad Prism V7.02 software (GraphPad Software, San Diego, CA, USA).

Row | Binder | EC50 (read off the curve) [1] [µg/mL] | EC50 (read off the curve) [2] [µg/mL] | EC50 (human CD30) [µg/mL]
1 | bsG1-huCD3-FEALxCD30-MDX060-FEAR (bispecific antibody, human IgG1, kappa, lambda, also called bsG1-huCD3xCD30-MDX060) heavy 1: not shown light 1: not shown heavy 2: QVQLQQWGAGLLKPSETLSLTCAVYGGSFSAYYWSWIRQPPGKGLEWIGDINHGGGTNYNPSLKSRVTISVDTSKNQFSLKLNSVTAADTAVYYCASLTAYWGQGSLVTVSSASTKGPSVFPLAPSSKSTSGGTAALGCLVKDYFPEPVTVSWNSGALTSGVHTFPAVLQSSGLYSLSSVVTVPSSSLGTQTYICNVNHKPSNTKVDKRVEPKSCDKTHTCPPCPAPEFEGGPSVFLFPPKPKDTLMISRTPEVTCVVVAVSHEDPEVKFNWYVDGVEVHNAKTKPREEQYNSTYRVVSVLTVLHQDWLNGKEYKCKVSNKALPAPIEKTISKAKGQPREPQVYTLPPSREEMTKNQVSLTCLVKGFYPSDIAVEWESNGQPENNYKTTPPVLDSDGSFFLYSRLTVDKSRWQQGNVFSCSVMHEALHNHYTQKSLSLSPG light 2: DIQMTQSPTSLSASVGDRVTITCRASQGISSWLTWYQQKPEKAPKSLIYAASSLQSGVPSRFSGSGSGTDFTLTISSLQPEDFATYYCQQYDSYPITFGQGTRLEIKRTVAAPSVFIFPPSDEQLKSGTASVVCLLNNFYPREAKVQWKVDNALQSGNSQESVTEQDSKDSTYSLSSTLTLSKADYEKHKVYACEVTHQGLSSPVTKSFNRGEC | ~0.2 |  | 
2 | bsG1-huCD3-FEALxCD30-MDX060-FERR (bispecific antibody, human IgG1, kappa, lambda, Bispecific IgG1 made by controlled Fab-arm exchange; also called bsIgG1-huCD3-FEALxCD30-MDX060-FERR; bsG1-huCD3×CD30-MDX060) heavy 1: not shown light 1: not shown heavy 2: QVQLQQWGAGLLKPSETLSLTCAVYGGSFSAYYWSWIRQPPGKGLEWIGDINHGGGTNYNPSLKSRVTISVDTSKNQFSLKLNSVTAADTAVYYCASLTAYWGQGSLVTVSSASTKGPSVFPLAPSSKSTSGGTAALGCLVKDYFPEPVTVSWNSGALTSGVHTFPAVLQSSGLYSLSSVVTVPSSSLGTQTYICNVNHKPSNTKVDKRVEPKSCDKTHTCPPCPAPEFERGPSVFLFPPKPKDTLMISRTPEVTCVVVDVSHEDPEVKFNWYVDGVEVHNAKTKPREEQYNSTYRVVSVLTVLHQDWLNGKEYKCKVSNKALPAPIEKTISKAKGQPREPQVYTLPPSREEMTKNQVSLTCLVKGFYPSDIAVEWESNGQPENNYKTTPPVLDSDGSFFLYSRLTVDKSRWQQGNVFSCSVMHEALHNHYTQKSLSLSPG light 2: DIQMTQSPTSLSASVGDRVTITCRASQGISSWLTWYQQKPEKAPKSLIYAASSLQSGVPSRFSGSGSGTDFTLTISSLQPEDFATYYCQQYDSYPITFGQGTRLEIKRTVAAPSVFIFPPSDEQLKSGTASVVCLLNNFYPREAKVQWKVDNALQSGNSQESVTEQDSKDSTYSLSSTLTLSKADYEKHKVYACEVTHQGLSSPVTKSFNRGEC |  | ~0.07 | 0.143 to 0.258
